Source: patent US20220033505A1 (Janssen / Centocor, published 2022)

Columns and labels:
[1] = target: HLA-G on NCI-H2009-b2m target cells (human, UniProt P17693 25-338); test: cell-based or functional assay
[2] = target: T1, MHGW8 (B2m-3(G4S)-HLA-G1-G4S-Avi), soluble HLA-G1 extracellular domain (human, biotinylated (Avi tag) in the ligand blocking assay); test: competition, flow cytometry: antibody titrated against MHGW8-dextramer binding to ILT2 on HEK293T cells (competitor ILT2)
T1 construct: also called HLA-G (MHGW8); recombinant biotinylated HLA-G1 (MHGW8)
Protocol: (§1) Cells were added (25,000 cells) and incubated for 30 min at 4° C. […] The resuspended mixture was analyzed for fluorescence signal by flow cytometry using an Intellicyt® iQue Screener Plus.

[3] = target: T1, MHGW8 (B2m-3(G4S)-HLA-G1-G4S-Avi), …; test: competition, flow cytometry: antibody titrated against MHGW8-dextramer binding to ILT4 on HEK293T cells (competitor ILT4)
Protocol: as §1

[4] = target: T2, HLA-G1 on K562 cells (K562-HLA-G) (human); test: flow cytometry; IgG1 mAb on cells expressing HLA-G
T2 construct: also called cells expressing HLA-G
Protocol: Briefly, 1.5×10⁷ cells were washed 2 times with 1×PBS and resuspended in 7 mL of 1×PBS and incubated for 10 min. After incubation, 8 mL of fetal bovine serum (FBS) were added, cells were washed by centrifugation at 300×g for 5 min and resuspended at 1×10⁶ cells/mL in DMEM supplemented with 10% FBS. […] After incubation, 150 μL of staining buffer were added and cells were washed by centrifugation at 300×g for 5 min. Cells were resuspended in 200 μL of running buffer (staining buffer supplemented with 1 mM EDTA, 0.1% (v/v) pluronic acid) and washed by centrifugation at 300×g for 5 min. Cells were resuspended in 30 mL of running buffer and analyzed for antibody binding by flow cytometry.

Binder | Cytotoxicity, EC50 (M); T cell-mediated cytotoxicity against NCI-H2009-b2m cells, 72 hr, E:T 3:1 [1] [M] | EC50 [2] [nM] | EC50 [3] [nM] | Geomean fluorescence signal (maximum value for binding) [4]
HC3B124 (CD3B219-Fab-Fc x MHGB732-scFv-Fc) (bispecific antibody, human IgG1, lambda, L234A L235A) heavy: EVQLVESGGGLVQPGGSLRLSCAASGFTFNTYAMNWVRQAPGKGLEWVARIRSKYNNYATYYAASVKGRFTISRDDSKNSLYLQMNSLKTEDTAVYYCVRHGNFGNSYVSWFAYWGQGTLVTVSSASTKGPSVFPLAPSSKSTSGGTAALGCLVKDYFPEPVTVSWNSGALTSGVHTFPAVLQSSGLYSLSSVVTVPSSSLGTQTYICNVNHKPSNTKVDKKVEPKSCDKTHTCPPCPAPEAAGGPSVFLFPPKPKDTLMISRTPEVTCVVVSVSHEDPEVKFNWYVDGVEVHNAKTKPREEQYNSTYRVVSVLTVLHQDWLNGKEYKCKVSNKALPAPIEKTISKAKGQPREPQVYVYPPSREEMTKNQVSLTCLVKGFYPSDIAVEWESNGQPENNYKTTPPVLDSDGSFALVSKLTVDKSRWQQGNVFSCSVMHEALHNHYTQKSLSLSPG light: QTVVTQEPSLTVSPGGTVTLTCRSSTGAVTTSNYANWVQQKPGQAPRGLIGGTNKRAPGTPARFSGSLLGGKAALTLSGVQPEDEAEYYCALWYSNLWVFGGGTKLTVLGQPKAAPSVTLFPPSSEELQANKATLVCLISDFYPGAVTVAWKADSSPVKAGVETTTPSKQSNNKYAASSYLSLTPEQWKSHRSYSCQVTHEGSTVEKTVAPTECS scFv: DIVMTQSPDSLAVSLGERATINCKSSQSVLHSSNNKNYLTWFQQKPGQPPKLLIYWASTRESGVPDRFSGSGSGTDFTLTISSLQAEDVAVYYCHQYYSTPPTFGQGTKVEIKGGSEGKSSGSGSESKSTGGSQVQLQQSGPGLVKPSQTLSLTCAISGDSVSSNSAAWNWIRQSPSRGLEWLGRTYYRSKWYNDYAVSVKSRITINPDTSKNQISLQLNSVTPEDTAVYYCAGDRRYGIVGLPFAYWGQGTLVTVSSEPKSSDKTHTCPPCPAPEAAGGPSVFLFPPKPKDTLMISRTPEVTCVVVSVSHEDPEVKFNWYVDGVEVHNAKTKPREEQYNSTYRVVSVLTVLHQDWLNGKEYKCKVSNKALPAPIEKTISKAKGQPREPQVYVLPPSREEMTKNQVSLLCLVKGFYPSDIAVEWESNGQPENNYLTWPPVLDSDGSFFLYSKLTVDKSRWQQGNVFSCSVMHEALHNHYTQKSLSLSPG | 3.85e-12 |  |  | 
HC3B123 (CD3W246-Fab-Fc x MHGB732-LH-scFv-Fc) (bispecific antibody, human IgG1, kappa, L234A L235A) heavy: EVQLVESGGGLVKPGGSLRLSCAASGFTFSRYNMNWVRQAPGKGLEWVSSISTSSNYIYYADSVKGRFTFSRDNAKNSLDLQMSGLRAEDTAIYYCTRGWGPFDYWGQGTLVTVSSASTKGPSVFPLAPSSKSTSGGTAALGCLVKDYFPEPVTVSWNSGALTSGVHTFPAVLQSSGLYSLSSVVTVPSSSLGTQTYICNVNHKPSNTKVDKKVEPKSCDKTHTCPPCPAPEAAGGPSVFLFPPKPKDTLMISRTPEVTCVVVSVSHEDPEVKFNWYVDGVEVHNAKTKPREEQYNSTYRVVSVLTVLHQDWLNGKEYKCKVSNKALPAPIEKTISKAKGQPREPQVYVYPPSREEMTKNQVSLTCLVKGFYPSDIAVEWESNGQPENNYKTTPPVLDSDGSFALVSKLTVDKSRWQQGNVFSCSVMHEALHNHYTQKSLSLSPGK light: DIQMTQSPSSLSASVGDRVTITCRARQSIGTAIHWYQQKPGKAPKLLIKYASESISGVPSRFSGSGSGTDFTLTISSVQPEDFATYYCQQSGSWPYTFGQGTKLEIKRTVAAPSVFIFPPSDEQLKSGTASVVCLLNNFYPREAKVQWKVDNALQSGNSQESVTEQDSKDSTYSLSSTLTLSKADYEKHKVYACEVTHQGLSSPVTKSFNRGEC scFv: DIVMTQSPDSLAVSLGERATINCKSSQSVLHSSNNKNYLTWFQQKPGQPPKLLIYWASTRESGVPDRFSGSGSGTDFTLTISSLQAEDVAVYYCHQYYSTPPTFGQGTKVEIKGGSEGKSSGSGSESKSTGGSQVQLQQSGPGLVKPSQTLSLTCAISGDSVSSNSAAWNWIRQSPSRGLEWLGRTYYRSKWYNDYAVSVKSRITINPDTSKNQISLQLNSVTPEDTAVYYCAGDRRYGIVGLPFAYWGQGTLVTVSSEPKSSDKTHTCPPCPAPEAAGGPSVFLFPPKPKDTLMISRTPEVTCVVVSVSHEDPEVKFNWYVDGVEVHNAKTKPREEQYNSTYRVVSVLTVLHQDWLNGKEYKCKVSNKALPAPIEKTISKAKGQPREPQVYVLPPSREEMTKNQVSLLCLVKGFYPSDIAVEWESNGQPENNYLTWPPVLDSDGSFFLYSKLTVDKSRWQQGNVFSCSVMHEALHNHYTQKSLSLSPG | 3.24e-12 |  |  | 
HC3B214 (CD3W246-Fab-Fc x MHGB737-scFv-Fc) (bispecific antibody, human IgG1, kappa, L234A L235A) heavy: EVQLVESGGGLVKPGGSLRLSCAASGFTFSRYNMNWVRQAPGKGLEWVSSISTSSNYIYYADSVKGRFTFSRDNAKNSLDLQMSGLRAEDTAIYYCTRGWGPFDYWGQGTLVTVSSASTKGPSVFPLAPSSKSTSGGTAALGCLVKDYFPEPVTVSWNSGALTSGVHTFPAVLQSSGLYSLSSVVTVPSSSLGTQTYICNVNHKPSNTKVDKKVEPKSCDKTHTCPPCPAPEAAGGPSVFLFPPKPKDTLMISRTPEVTCVVVSVSHEDPEVKFNWYVDGVEVHNAKTKPREEQYNSTYRVVSVLTVLHQDWLNGKEYKCKVSNKALPAPIEKTISKAKGQPREPQVYVYPPSREEMTKNQVSLTCLVKGFYPSDIAVEWESNGQPENNYKTTPPVLDSDGSFALVSKLTVDKSRWQQGNVFSCSVMHEALHNHYTQKSLSLSPGK light: DIQMTQSPSSLSASVGDRVTITCRARQSIGTAIHWYQQKPGKAPKLLIKYASESISGVPSRFSGSGSGTDFTLTISSVQPEDFATYYCQQSGSWPYTFGQGTKLEIKRTVAAPSVFIFPPSDEQLKSGTASVVCLLNNFYPREAKVQWKVDNALQSGNSQESVTEQDSKDSTYSLSSTLTLSKADYEKHKVYACEVTHQGLSSPVTKSFNRGEC scFv: not shown | 1.38e-10 |  |  | 
MHGB694 (antibody, human IgG1, kappa, V domains shown, IgG1 mAb) VH: EVQLLESGGGLVQPGGSLRLSCAASGFTFSSYAMHWVRQAPGKGLDWVSGISGSGFSTYYVDSVKGRFTISRDNSKHTLYLQMNSLRAEDTAVYYCAKDNLVAGTVFDYWGQGTLVTVSS VL: not shown |  | 0.64 | 0.2 | 473000
MHGB665/MHGB732 (one printed row for both names), IgG1 mAb (antibody, V domains shown, tested as IgG1 mAb) VH: QVQLQQSGPGLVKPSQTLSLTCAISGDSVSSNSAAWNWIRQSPSRGLEWLGRTYYRSKWYNDYAVSVKSRITINPDTSKNQISLQLNSVTPEDTAVYYCAGDRRYGIVGLPFAYWGQGTLVTVSS VL: not shown |  |  |  | 632000
MHGB672 (antibody, human IgG1, kappa, V domains shown, IgG1 mAb) VH: QVQLQQSGPGLVKPSQTLSLTCAISGDSVSSNRAAWNWIRQTPSRGLEWLGRTYYRSEWYNDYAVSVKSRITINPDTSKNQFSLQLNSVTPEDTAVYYCARVRAAVPFDYWGQGTLVTVSS VL: not shown |  | 2.12 | 1.61 | 522000
MHGB738 (GL optimized B688) (antibody, human IgG1, kappa, V domains shown, IgG1 mAb) VH: QVQLQQSGPGLVKPSQTLSLTCAISGDSVSSNRAAWNWIRQSPSRGLEWLGRTYYRSKWYNDYAVSVKSRITINPDTSKNQISLQLNSVTPEDTAVYYCARVRPGIPFDYWGQGTPVTVSS VL: not shown |  | 0.73 | 0.8 | 
MHGB669 (antibody, human IgG1, kappa, V domains shown, IgG1 mAb) VH: QVQLQQSGPGLVRPSQTLSVTCAISGDSVSSNSASWNWIRQSPSRGLEWLGRTYYRSEWFNDYAVSVKSRVTINPDTSKNQLSLQLNSVIPEDTAVYYCAREARIGVAGKGFDYWGQGTLVTVSS VL: not shown |  | 1.7 | 1.59 | 616000
HC3B216 (CD3B376-Fab-Fc x MHGB737-scFv-Fc) (bispecific antibody, human IgG1, lambda, L234A L235A) heavy: QVQLQQSGPRLVRPSQTLSLTCAISGDSVFNNNAAWSWIRQSPSRGLEWLGRTYYRSKWLYDYAVSVKSRITVNPDTSRNQFTLQLNSVTPEDTALYYCARGYSSSFDYWGQGTLVTVSSASTKGPSVFPLAPSSKSTSGGTAALGCLVKDYFPEPVTVSWNSGALTSGVHTFPAVLQSSGLYSLSSVVTVPSSSLGTQTYICNVNHKPSNTKVDKKVEPKSCDKTHTCPPCPAPEAAGGPSVFLFPPKPKDTLMISRTPEVTCVVVSVSHEDPEVKFNWYVDGVEVHNAKTKPREEQYNSTYRVVSVLTVLHQDWLNGKEYKCKVSNKALPAPIEKTISKAKGQPREPQVYVYPPSREEMTKNQVSLTCLVKGFYPSDIAVEWESNGQPENNYKTTPPVLDSDGSFALVSKLTVDKSRWQQGNVFSCSVMHEALHNHYTQKSLSLSPGK light: QSALTQPASVSGSPGQSITISCTGTSSNIGTYKFVSWYQQHPDKAPKVLLYEVSKRPSGVSSRFSGSKSGNTASLTISGLQAEDQADYHCVSYAGSGTLLFGGGTKLTVLGQPKAAPSVTLFPPSSEELQANKATLVCLISDFYPGAVTVAWKADSSPVKAGVETTTPSKQSNNKYAASSYLSLTPEQWKSHRSYSCQVTHEGSTVEKTVAPTECS scFv: not shown | 1.9e-09 |  |  | 
MHGB687 (antibody, human IgG1, kappa, V domains shown, IgG1 mAb) VH: QLQLQESGPGLVKPSETLSLMCTVSGGSITSSSYYWGWIRQPPGKGLEWIGNIYYSGTTYYNPSLKSRVTISVDTSKNQFSLKLSSVTAADTAVYYCAAGARDFDSWGQGSLVTVSS VL: not shown |  |  | 1.86 | 528000
MHGB668 (antibody, human IgG1, kappa, V domains shown, IgG1 mAb) VH: QVQLQQSGPGLVKPSQTLSLTCAISGDSVSNNSAAWNWIRQSPSRGLEWLGRTYYRSKWYNDYAVSVKSRITINPDTSKNQFSLQLNSVTPEDTAVYYCARYGSGTLLFDYWGQGTLVTVSS VL: not shown |  |  |  | 591000
MHGB688 (antibody, human IgG1, kappa, V domains shown, IgG1 mAb) VH: EVQLLESGPGLVKPSQTLSLTCVISGDSVSSNRAAWNWIRQSPSRGLEWLGRTYYRSKWYNDYAVSVKSRITINSDTSKNQISLQLNSVTPEDTAVYYCARVRPGIPFDYWGQGTPVTVSS VL: not shown |  | 1.72 | 1.42 | 482000
